{
  "source": "paper PMC7281375",
  "about": "“Therapeutic Targeting of Pancreatic Cancer via EphA2 Dimeric Agonistic Agents” (Pharmaceuticals, 2020)",
  "key": {"[1]": {"system": "EphA2 receptor", "conditions": "monomeric agents; cited from earlier work", "from_the_text": "In order to evaluate the ability of each agent to activate the receptor, we tested them in various cellular assays as reported below. Because receptor activation causes its internalization and degradation, we opted to monitor the ability of each agent to reduce EphA2 levels over time, after exposure of cells to test ligands. […] First, we wanted to explore the effect of the linker length between the monomers and therefore tested side by sid ..."}, "[2]": {"system": "EphA2 receptor", "assay": "EphA2 degradation, Western blot of BxPC3 cell lysates", "format": "cell-based", "conditions": "BxPC3 cells, 1 h, several concentrations", "procedure": "In order to evaluate the ability of each agent to activate the receptor, we tested them in various cellular assays as reported below. Because receptor activation causes its internalization and degradation, we opted to monitor the ability of each agent to reduce EphA2 levels over time, after exposure of cells to test ligands. […] For these experiments we initially treated HCT116 cells with 10 μM concentration of each agent for 2.5 h, and cells lysates were probed for total EphA2 using anti-EphA2 antibody (1C11A12; Thermo Fisher Scientific) (Figure 3a). […] Because these agents had optimized side chains, we expected these to work at much lower concentrations compared to dimeric agents derived from 135B12 (Table 1).\nFigure 3 Dimeric and tetrameric EphA2 agonistic ligands degrade EphA2 receptor. […] Total ERK1/2 blot was used as a loading control.\nFigure 5 Pharmacological inhibition of EphA2 expression partially impairs migration of pancreatic cancer cells. […] (c) Western blot of BxPC3 cell lysates after exposure for 5 min, 1 h or 24 h to indicated agents. (d) Representative images from treated wells at times 0 and 30 h. **, p < 0.005; ***, p < 0.001. Error bars represent standard deviation. […]"}, "[3]": {"system": "EphA2 receptor", "assay": "EphA2 degradation, Western blot of HCT116 cell lysates", "format": "cell-based", "conditions": "HCT116 cells, ephrinA1-Fc 1 μg/mL, 2.5 h"}, "[4]": {"system": "WT-BxPC3 cells", "assay": "Scratch wound cell migration assay (IncuCyte S3), WT-BxPC3", "format": "cell-based", "from_the_text": "The monomeric, unbound EphA2 receptor is known to be pro-oncogenic, inducing cell migration of cancer cells, while ephrinA1-Fc, inducing EphA2 dimer formation can suppressed this activity. To more directly examine the effect EphA2 on pancreatic cancer cell migration we first prepared a stable BxPC3 EphA2 knockout (KO) cell line and monitored its migratory properties using the scratch wound method and live-cell analysis (IncuCyte S3, Sartorius) (Figure 4). Briefly, homogeneous scratch wounds on plated cells were created by a 96-pin mechanical device (WoundMaker, Sartorius, Göttingen, Germany). Subsequently, live-cell imaging was performed to monitor the rate of wound closure. As controls, we also tested wild-type (WT) BxPC3 cells, and each cell type was treated with ephrinA1-Fc, or Fc as control (Figure 4).\nCells were plated at 50 × 10^3 cells/well density in 96-well ImageLock plates (Sartorius). The following day, cells were scratched using the WoundMaker (Sartorius) and washed three times with PBS. Subsequently, cells were treated with the indicated compounds in RPMI-1640 complete media. […] Plates were imaged every two hours using IncuCyte S3 (Sartorius), and relative wound areas were analyzed using the algorithm of the imager cell migration software module."}, "[5]": {"system": "EphA2-KO BxPC3 cells", "assay": "Scratch wound cell migration assay (IncuCyte S3), EphA2-KO BxPC3", "format": "cell-based", "conditions": "EphA2-KO BxPC3, ephrinA1-Fc versus Fc", "from_the_text": "The monomeric, unbound EphA2 receptor is known to be pro-oncogenic, inducing cell migration of cancer cells, while ephrinA1-Fc, inducing EphA2 dimer formation can suppressed this activity. To more directly examine the effect EphA2 on pancreatic cancer cell migration we first prepared a stable BxPC3 EphA2 knockout (KO) cell line and monitored its migratory properties using the scratch wound method and live-cell analysis (IncuCyte S3, Sartorius) (Figure 4). Briefly, homogeneous scratch wounds on plated cells were created by a 96-pin mechanical device (WoundMaker, Sartorius, Göttingen, Germany). Subsequently, live-cell imaging was performed to monitor the rate of wound closure. As controls, we also tested wild-type (WT) BxPC3 cells, and each cell type was treated with ephrinA1-Fc, or Fc as control (Figure 4). […]\nCells were plated at 50 × 10^3 cells/well density in 96-well ImageLock plates (Sartorius). […] Plates were imaged every two hours using IncuCyte S3 (Sartorius), and relative wound areas were analyzed using the algorithm of the imager cell migration software module."}, "[6]": {"system": "BxPC3 cells", "assay": "Cell proliferation during migration study", "format": "cell-based", "conditions": "BxPC3, treatments of the migration assay", "from_the_text": "Subsequently, we probed the effect of the pharmacological inhibition of EphA2 by our dimeric agents on the migratory properties of WT-BxPC3 in a similar assay (Figure 5a). […] Of note is that cell proliferation was not affected by either treatment with ephrinA1-Fc or by our agents."}},
  "note": "“Also recorded” adds a separate entry of the source.",
  "data": [
    {"molecule": "COc1ccc(C[C@H](NC(=O)[C@H](C)NC(=O)[C@H](CC(C)C)NC(=O)c2oc3c(OC)c(OC)ccc3c2C)C(=O)N2CCC[C@H]2C(=O)N[C@@H](CC(=O)O)C(=O)N[C@@H](C)C(=O)N[C@H](C(=O)N2C[C@H](O)C[C@H]2C(=O)N[C@@H](Cc2ccc(Cl)cc2)C(=O)N[C@@H](CCCNC(=N)N)C(=O)N2CCC[C@H]2C(N)=O)C(C)C)cc1", "note": "[135H11]", "values": [
      {"measurement": "concentration at which receptor activation was shown", "setting": "[1]", "result": "≥ 100", "unit": "µM"}
    ]},
    {"molecule": "COc1ccc(C[C@H](NC(=O)[C@H](C)NC(=O)[C@H](CC(C)C)NC(=O)c2oc3c(OC)c(OC)ccc3c2C)C(=O)N2CCC[C@H]2C(=O)N[C@@H](CC(=O)O)C(=O)N[C@@H](C)C(=O)N[C@H](C(=O)N2C[C@H](O)C[C@H]2C(=O)N[C@@H](Cc2ccc(Cl)cc2)C(=O)N[C@@H](CCCNC(=N)N)C(=O)N2CCC[C@H]2C(=O)NCC(=O)NCCCC[C@H](NC(=O)CNC(=O)[C@@H]2CCCN2C(=O)[C@H](CCCNC(=N)N)NC(=O)[C@H](Cc2ccc(Cl)cc2)NC(=O)[C@@H]2C[C@@H](O)CN2C(=O)[C@@H](NC(=O)[C@H](C)NC(=O)[C@H](CC(=O)O)NC(=O)[C@@H]2CCCN2C(=O)[C@H](Cc2ccc(OC)cc2)NC(=O)[C@H](C)NC(=O)[C@H](CC(C)C)NC(=O)c2oc3c(OC)c(OC)ccc3c2C)C(C)C)C(=O)N[C@@H](CCCCN)C(=O)NCCCC[C@H](NC(=O)[C@H](CCCCN)NC(=O)[C@H](CCCCNC(=O)CNC(=O)[C@@H]2CCCN2C(=O)[C@H](CCCNC(=N)N)NC(=O)[C@H](Cc2ccc(Cl)cc2)NC(=O)[C@@H]2C[C@@H](O)CN2C(=O)[C@@H](NC(=O)[C@H](C)NC(=O)[C@H](CC(=O)O)NC(=O)[C@@H]2CCCN2C(=O)[C@H](Cc2ccc(OC)cc2)NC(=O)[C@H](C)NC(=O)[C@H](CC(C)C)NC(=O)c2oc3c(OC)c(OC)ccc3c2C)C(C)C)NC(=O)CNC(=O)[C@@H]2CCCN2C(=O)[C@H](CCCNC(=N)N)NC(=O)[C@H](Cc2ccc(Cl)cc2)NC(=O)[C@@H]2C[C@@H](O)CN2C(=O)[C@@H](NC(=O)[C@H](C)NC(=O)[C@H](CC(=O)O)NC(=O)[C@@H]2CCCN2C(=O)[C@H](Cc2ccc(OC)cc2)NC(=O)[C@H](C)NC(=O)[C@H](CC(C)C)NC(=O)c2oc3c(OC)c(OC)ccc3c2C)C(C)C)C(N)=O)C(C)C)cc1", "note": "[135I1]", "values": [
      {"measurement": "EphA2 degradation", "setting": "[2]", "result": "not significantly more effective than its dimeric counterpart; also recorded: successfully degraded EphA2 receptor at nanomolar concentrations"}
    ]},
    {"molecule": "ephrinA1-Fc: dimeric natural ligand of EphA2, Fc dimerized ephrinA1 (protein, left off: Fc, end not stated, kept) DRHTVFWNSSNPKFRNEDYTIHVQLNDYVDIICPHYEDHSVADAAMEQYILYLVEHEEYQLCQPQSKDQVRWQCNRPSAKHGPEKLSEKFQRFTPFTLGKEFKEGHSYYYISKPIHQHEDRCLRLKVTVSGKITHSPQAHDNPQEKRLAADDPEVRVLHSIGHS", "values": [
      {"measurement": "total EphA2 level (anti-EphA2 blot)", "setting": "[3]", "result": "very effective in causing EphA2 degradation; also recorded: complete degradation of the receptor"},
      {"measurement": "cell migration, relative wound density at 36 h", "setting": "[4]; WT BxPC3, 1 μg/mL, versus Fc", "result": "WT cells treated with Fc migrated significantly faster than WT cells treated with ephrinA1-Fc"},
      {"measurement": "cell migration, relative wound density after 30 h", "setting": "[4]; WT-BxPC3, 1 µg/mL", "result": "significant decrease of cell migration"},
      {"measurement": "cell migration, rate of migration over 36 h", "setting": "[5]", "result": "did not significantly decrease the rate of migration"},
      {"measurement": "cell proliferation", "setting": "[6]", "result": "not affected"}
    ]}
  ]
}
